Assay results: article PMC4771820

Target: Paracoccus denitrificans FnrP (Paracoccus denitrificans)
Assay: SEC; analytical gel filtration under anaerobic conditions, calibrated Sephacryl S-100HR 16/50, assay buffer (25 mM HEPES, 2.5 mM CaCl2, 100 mM NaCl, 100 mM NaNO3, pH 7.5), 1 ml/min; reconstituted [4Fe–4S] FnrP (~90 % loaded) loaded at ~28 μM [4Fe–4S], in the absence of O2

Substance “Paracoccus denitrificans FnrP (natural protein)” has a stoichiometry N of 2.
